The values that follow come from patent US20240400677A1 (ELECTRA THERAPEUTICS, published 2024).

Where only a bound is given, the exact number is not on record here.

The target of assay [1] is T1, cynomolgus monkey SIRPα on CHO cells (cynomolgus monkey, UniProt A0A2K5VYQ9 31-507).
T1 construct: whole, on cells; also called Cyno SIRPα CHO
T1 sequence: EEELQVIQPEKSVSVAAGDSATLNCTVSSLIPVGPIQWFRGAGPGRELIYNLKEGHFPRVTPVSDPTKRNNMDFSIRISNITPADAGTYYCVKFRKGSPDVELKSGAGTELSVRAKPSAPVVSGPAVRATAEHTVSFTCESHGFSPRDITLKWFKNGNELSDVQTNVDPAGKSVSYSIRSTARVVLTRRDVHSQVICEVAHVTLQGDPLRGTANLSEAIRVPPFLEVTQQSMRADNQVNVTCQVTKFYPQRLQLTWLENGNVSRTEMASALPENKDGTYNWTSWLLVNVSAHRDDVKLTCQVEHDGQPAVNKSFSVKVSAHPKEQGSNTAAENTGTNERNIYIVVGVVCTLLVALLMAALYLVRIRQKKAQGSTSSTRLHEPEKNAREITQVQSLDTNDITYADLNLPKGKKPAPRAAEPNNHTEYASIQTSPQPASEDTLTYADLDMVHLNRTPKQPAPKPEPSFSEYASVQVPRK
Briefly: flow cytometry. (In flow cytometry, cells or beads pass a laser one at a time.)

Assay [2] deals with T2, cynomolgus monkey SIRPγ on CHO cells (cynomolgus monkey, UniProt Q9P1W8 29-386 (human entry)).
T2 construct: also called Cyno SIRPγ CHO
T2 chain: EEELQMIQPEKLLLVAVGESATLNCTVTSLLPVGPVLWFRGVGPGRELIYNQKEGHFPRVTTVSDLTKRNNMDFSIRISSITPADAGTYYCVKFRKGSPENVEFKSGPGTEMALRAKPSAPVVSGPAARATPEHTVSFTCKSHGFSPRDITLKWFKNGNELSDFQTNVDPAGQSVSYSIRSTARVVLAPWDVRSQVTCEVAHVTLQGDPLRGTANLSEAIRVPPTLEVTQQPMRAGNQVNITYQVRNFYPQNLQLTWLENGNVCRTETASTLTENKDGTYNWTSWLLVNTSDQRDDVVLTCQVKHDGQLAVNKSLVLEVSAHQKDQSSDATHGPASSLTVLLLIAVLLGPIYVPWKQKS
Description: flow cytometry, myc-scFv PPE. As for the experimental part:
(§1) Selected antibodies were tested for binding to stably transfected human SIRPγ, SIRPαV1, or SIRPβ1 (co-transfected with DAP12) Chinese hamster ovary (CHO) cells via flow cytometry. A titration of select antibodies was added to the cells and detected using a fluorescently labelled secondary anti-rat IgG antibody or anti-human IgG antibody. Graphs depict the median fluorescence intensity (MFI) at each concentration. FIGS. 5A and 5G show the binding curves of select antibodies to human SIRPγ, cynomolgus monkey SIRPγ, human SIRPα, cynomolgus monkey SIRPα, human SIRPβ1, or cynomolgus monkey SIRPβl-expressing CHO cells detected using an anti-rat IgG antibody. FIGS. 5B-5F and 5H-5L show the binding curves of select antibodies to human SIRPγ, cynomolgus monkey SIRPγ, human SIRPα, cynomolgus monkey SIRPα, human SIRPβ1, or cynomolgus monkey SIRPβ1-expressing CHO cells detected using an anti-human IgG antibody. […] For select antibodies, each myc-tagged SIRPγ scFv antibody as crude PPE was incubated with each of the SIRP-expressing cell lines stated above along with the parental CHO-K1 cell line. […] Fold change value <2.0 is considered a non-binder.

Assay [3] deals with T3, human SIRPγ on stably transfected CHO cells (human, UniProt Q9P1W8 29-387).
T3 construct: also called Human SIRPγ CHO
Description: flow cytometry, myc-scFv PPE. As for the experimental part:
as §1

Assay [4] concerns the target T4, cynomolgus monkey SIRPγ-His monomer protein (cynomolgus monkey, UniProt Q9P1W8 29-359 (human entry), limits assumed).
T4 construct: also called Cyno SIRPγ; Cyno SIRPγ-His
T4 chain: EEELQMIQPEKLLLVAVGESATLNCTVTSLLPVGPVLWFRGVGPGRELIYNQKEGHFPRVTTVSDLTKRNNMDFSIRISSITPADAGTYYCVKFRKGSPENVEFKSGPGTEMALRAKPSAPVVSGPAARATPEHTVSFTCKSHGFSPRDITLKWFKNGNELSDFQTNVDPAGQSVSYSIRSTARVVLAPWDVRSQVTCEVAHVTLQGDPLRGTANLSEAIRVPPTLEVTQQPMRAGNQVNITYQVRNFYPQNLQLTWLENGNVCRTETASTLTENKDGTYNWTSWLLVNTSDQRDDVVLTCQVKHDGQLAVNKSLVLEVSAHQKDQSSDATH
Description: BLI Octet, captured scFv PPE, cyno SIRP. The method, then:
Unique binders were further tested for binding to human SIRPαV1, human SIRPαV2, and human SIRPβ1. Briefly, biotinylated anti-V5 was immobilized onto streptavidin biosensors. Each V5-tagged SIRPγ scFv antibody as crude PPE was captured by the anti-V5 antibody. SIRP-His monomer protein at 500 nM was exposed to the biosensor for binding to SIRP scFv. The biosensors were then exposed to wash buffer to measure off-rate kinetics. The resulting association and dissociation kinetics (kdis) was analyzed. […] Similarly, cross-reactivity to cynomolgus monkey SIRPγ, cynomolgus monkey SIRPα, and cynomolgus monkey SIRPβ1 were tested.
On the technique in general: In BLI a coated tip is dipped into the sample, and binding shifts an interference pattern.

Assay [5] deals with T5, human SIRPγ-His monomer protein (human, UniProt Q9P1W8 29-360).
T5 construct: also called hSIRPγ
Briefly: BLI Octet, V5-scFv PPE captured, SIRP-His 500 nM.

For assay [6], the target named is T6, human SIRPβ1 on CHO cells (co-transfected with DAP12) (human, UniProt O00241 30-398).
T6 construct: whole, on cells; co-transfected with DAP12; also called Human SIRPβ1 CHO
Description: flow cytometry.

T3 sequence (Q9P1W8 29-387 limits assumed): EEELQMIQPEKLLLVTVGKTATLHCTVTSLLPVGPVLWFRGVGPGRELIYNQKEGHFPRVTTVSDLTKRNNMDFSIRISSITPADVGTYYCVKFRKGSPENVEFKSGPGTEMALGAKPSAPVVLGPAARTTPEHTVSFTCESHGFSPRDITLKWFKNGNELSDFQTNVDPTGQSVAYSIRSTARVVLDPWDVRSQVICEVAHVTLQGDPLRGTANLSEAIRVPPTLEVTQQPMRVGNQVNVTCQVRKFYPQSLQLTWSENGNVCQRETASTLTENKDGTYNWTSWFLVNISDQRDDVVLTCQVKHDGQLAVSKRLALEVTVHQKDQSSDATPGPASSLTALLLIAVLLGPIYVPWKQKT
T6 sequence (O00241 30-398): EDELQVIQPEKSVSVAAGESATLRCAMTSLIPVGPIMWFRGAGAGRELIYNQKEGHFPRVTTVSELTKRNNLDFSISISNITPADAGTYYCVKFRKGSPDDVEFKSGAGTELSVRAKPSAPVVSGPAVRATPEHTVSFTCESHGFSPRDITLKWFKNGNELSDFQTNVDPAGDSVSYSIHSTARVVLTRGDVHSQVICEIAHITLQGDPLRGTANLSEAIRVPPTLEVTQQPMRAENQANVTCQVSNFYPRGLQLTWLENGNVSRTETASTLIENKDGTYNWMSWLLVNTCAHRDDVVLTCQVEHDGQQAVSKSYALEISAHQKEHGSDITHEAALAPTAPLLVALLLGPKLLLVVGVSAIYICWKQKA
T5 sequence (Q9P1W8 29-360 limits assumed): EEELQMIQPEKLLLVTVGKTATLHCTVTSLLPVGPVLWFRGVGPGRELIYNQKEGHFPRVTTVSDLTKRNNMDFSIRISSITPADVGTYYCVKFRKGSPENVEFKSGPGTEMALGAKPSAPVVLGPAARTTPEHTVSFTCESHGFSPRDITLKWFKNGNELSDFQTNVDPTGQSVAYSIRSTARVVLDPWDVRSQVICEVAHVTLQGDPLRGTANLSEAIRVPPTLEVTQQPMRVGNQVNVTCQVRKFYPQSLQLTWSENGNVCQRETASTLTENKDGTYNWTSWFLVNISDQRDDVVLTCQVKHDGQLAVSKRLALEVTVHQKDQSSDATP

B1: Antibody 26 (scFv, V domains shown)
VH: QVQLVQSGAEVKKPGASVKVSCKASGYTFTSYYMHWVRQAPGQGLEWMGRINPNSGGTKYAQKFQGRVTMTRDTSTSTVYMELSSLRSEDTAVYYCARLGSAYFDLWGRGTLVTVSS
VL: DIQMTQSPSSLSASVGDRVTITCRASQSVDTWLAWYQQKPGKAPKLLIYEASTLESGVPSRFSGSGSGTDFTLTISSLQPEDFATYYCQQANSFPITFGQGTRLEIK
notes: scFv in crude PPE, V5/myc-tagged
As to B1, the binding result in assay [1] is on record as “no binding (tested: fold change <2.0)”; in assay [4], “binds”. For the same molecule, the entries for the “MFI fold change over parental CHO” value in assay [2] and in assay [3] were 40 fold and 28.4 fold, respectively. The same molecule yielded a kdis in assay [5] of 0.001 to 0.01 s⁻¹.

B2: Antibody 46 (scFv, V domains shown)
VH: QVQLVQSGAEVKKPGASVKVSCKASGYTFSSYAISWVRQAPGQGLEWMGWMDPNSGNTGYAQKFQGRVTMTRDTSTSTVYMELSSLRSEDTAVYYCARESSYYYDSSGYYPGWYFDLWGRGTLVTVSS
VL: DIQMTQSPSSLSASVGDRVTITCQASQDISNYLNWYQQKPGKAPKLLIYAASTLQTGVPSRFSGSGSGTDFTLTISSLQPEDFATYYCQQSYSTPWTFGPGTKVDIK
notes: as for B1
In the case of B2, the binding result is on record as “no binding (tested: fold change <2.0)” in assay [6] and “binds” in assay [4]. The “MFI fold change over parental CHO” value in assay [2] worked out at 16 fold; in assay [3] it was 13.1 fold. In assay [5], this molecule registered a kdis above 0.01 s⁻¹.

B3: Antibody 12 (scFv, V domains shown)
VH: QVQLVQSGAEVKKPGASVKVSCKASGGTFGSYGINWVRQAPGQGLEWMGWISAYNGNTNYAQKLQGRVTMTRDTSTSTVYMELSSLRSEDTAVYYCARDGIDYGGNSGYDYWGQGTLVTVSS
VL: DIQMTQSPSSLSASVGDRVTITCRASQNIRNYLNWYQQKPGKAPKLLIYAASSLQGGVPSRFSGSGSGTDFTLTISSLQPEDFATYYCQQSYNGPYTFGQGTKVEIK
notes: as for B1
Regarding B3, the binding result in assay [6] is recorded as “no binding (tested: fold change <2.0)”; in assay [4] it was “binds”. Also, the “MFI fold change over parental CHO” value in assay [2] amounted to 5.94 fold; in assay [3], 10.7 fold. This molecule returned a kdis in assay [5] of 0.001 to 0.01 s⁻¹.

B4: Antibody 40 (scFv, V domains shown)
VH: QVQLVQSGAEVKKPGSSVKVSCKASGGTFSSYAISWVRQAPGQGLEWVGRIHPRDGSTDYAQKFQGRVTITADESTSTAYMELSSLRSEDTAVYYCARVSLRFLEDYGMDVWGQGTTVTVSS
VL: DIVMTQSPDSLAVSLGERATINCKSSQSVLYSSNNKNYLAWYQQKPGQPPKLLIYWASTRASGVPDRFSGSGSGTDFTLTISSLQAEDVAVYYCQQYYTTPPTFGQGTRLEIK
notes: as for B1
On to B4, for which the binding result in assay [1] was “no binding (tested: fold change <2.0)”; in assay [6], “no binding (tested: fold change <2.0)”; in assay [4], “binds”. In addition, the entries for the “MFI fold change over parental CHO” value in assay [2] and in assay [3] were 15.3 fold and 15.4 fold, respectively. Moreover, in assay [5], the kdis is 0.001 to 0.01 s⁻¹.

B5: Antibody 43 (scFv, V domains shown)
VH: QVQLVQSGAEVKKPGASVKVSCKASGGTFTSYDINWVRQAPGQGLEWMGWISAYNGHTNYAQNLQGRVTMTRDTSTSTVYMELSSLRSEDTAVYYCAREDSSWYFDLWGRGTLVTVSS
VL: DIQMTQSPSSLSASVGDRVTITCRASQSISSWLAWYQQKPGKAPKLLIYDASNLETGVPSRFSGSGSGTDFTLTISSLQPEDFATYYCQQSFSTPPTFGQGTKVEIK
notes: as for B1
Take B5: the binding result in assay [1] is recorded as “no binding (tested: fold change <2.0)”; in assay [6] it was “no binding (tested: fold change <2.0)”; in assay [4], “binds”. For the same molecule, the “MFI fold change over parental CHO” value is 22.7 fold in assay [2] and 41.2 fold in assay [3].

B6: Antibody 11 (scFv, V domains shown)
VH: QVQLVQSGAEVKKPGASVKVSCKASGYTFTSYDINWVRQAPGQGLEWMGWMNPNSGNTGYAQKFQGRVTMTRDTSTSTVYMELSSLRSEDTAVYYCAKGAVAGTYYYYGMDVWGQGTTVTVSS
VL: DIQMTQSPSSLSASVGDRVTITCRASQTINNYLNWYQQKPGKAPKLLIYDASNLETGVPSRFSGSGSGTDFTLTISSLQPEDFATYYCQQANSFPLTFGQGTKVEIK
notes: as for B1
On to B6, for which the binding result in assay [6] is on record as “no binding (tested: fold change <2.0)”; in assay [4] it was “binds”. In addition, the “MFI fold change over parental CHO” value in assay [2] worked out at 6.18 fold; in assay [3] it was 3.98 fold. Besides, the kdis in assay [5] fell in the range of 0.001 to 0.01 s⁻¹.

B7: Antibody 17 (scFv, V domains shown)
VH: QVQLVQSGAEVKKPGASVKVSCKASGYTFTRNYVHWVRQAPGQGLEWMGRINPNSGGTNTAQKFQGRVTMTRDTSTSTVYMELSSLRSEDTAVYYCARLGDVAVAASFDYWGQGTLVTVSS
VL: DIQMTQSPSSLSASVGDRVTITCRASQSISSYLNWYQQKPGKAPKLLIYDASSLESGVPSRFSGSGSGTDFTLTISSLQPEDFATYYCQQANSFPLTFGPGTKVDIK
notes: as for B1
For the molecule B7, the values for the binding result in assay [1] and in assay [4] were “no binding (tested: fold change <2.0)” and “binds”, respectively. In addition, the figures for the “MFI fold change over parental CHO” value in assay [2] and in assay [3] were 30.1 fold and 28.3 fold, respectively.

B8: Antibody 37 (scFv, V domains shown)
VH: QVQLVQSGAEVKKPGASVKVSCKASGYTLNNYDINWVRQAPGQGLEWMGWISGYNGNTNYAQKLQGRVTMTRDTSTSTVYMELSSLRSEDTAVYYCARVGSSWEENDQWGQGTLVTVSS
VL: DIQMTQSPSSLSASVGDRVTITCRASQSISRWLAWYQQKPGKAPKLLIYAASSLESGVPSRFSGSGSGTDFTLTISSLQPEDFATYYCQQTHSFPLTFGGGTKVEIK
notes: as for B1
Consider B8, for which the binding result in assay [6] was “no binding (tested: fold change <2.0)”; in assay [4] it was “binds”. Besides, the “MFI fold change over parental CHO” value came to 15.5 fold in assay [2] and 31.1 fold in assay [3]. In assay [5], this molecule came in with a kdis of 0.001 to 0.01 s⁻¹.

B9: Antibody 13 (scFv, V domains shown)
VH: EVQLLESGGGLVQPGGSLRLSCAASGFTFSNSDMNWVRQAPGKGLEWVSYISSSGNTIYYADSVKGRFTISRDNSKNTLYLQMNSLRAEDTAVYYCARSNWNYPLDYYYMDVWGKGTTVTVSS
VL: DIVMTQSPLSLPVTPGEPASISCRSSQSLLHSNGYNYLDWYLQKPGQSPQLLIYAASSLQSGVPDRFSGSGSGTDFTLKISRVEAEDVGVYYCMQGTHWPPTFGQGTKVEIK
notes: as for B1
Turning to B9, the binding result in assay [1] is reported as “no binding (tested: fold change <2.0)”; in assay [6], “no binding (tested: fold change <2.0)”; in assay [4] it was “binds”. Further, the figures for the “MFI fold change over parental CHO” value in assay [2] and in assay [3] were 5.22 fold and 7.06 fold, respectively. Moreover, in assay [5], the kdis fell in the range of 0.001 to 0.01 s⁻¹.
